Test [1] deals with hRSV FTM- NN protein (membrane anchorless form of the Long fusion protein, 70 kDa) (hRSV strain Long). Nature of the test: Alphascreen competition: FTM- NN (0.3 nM) bridged by biotinylated Synagis Fab and 101F Fab acceptor beads. (In general: Alpha assays give light when donor and acceptor beads are brought close together.)
The target in test [2] is F protein of Long escape mutant R7C2/1 (K272E in antigenic site II) (hRSV strain Long escape mutant). Nature of the test: cell-based or functional assay.
Sequence of F protein of Long escape mutant R7C2/1 (K272E in antigenic site II) (hRSV strain Long escape mutant) (chain, as listed by the source): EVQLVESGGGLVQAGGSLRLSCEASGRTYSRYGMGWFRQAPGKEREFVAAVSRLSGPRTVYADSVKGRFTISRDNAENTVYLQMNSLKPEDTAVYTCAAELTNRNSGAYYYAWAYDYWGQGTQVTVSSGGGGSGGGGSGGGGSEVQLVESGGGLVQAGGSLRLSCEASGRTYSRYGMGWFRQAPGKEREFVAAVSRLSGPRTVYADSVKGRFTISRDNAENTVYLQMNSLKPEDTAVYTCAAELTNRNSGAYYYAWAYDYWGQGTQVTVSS
The target in test [3] is F protein of Long escape mutant R7C2/11 (antigenic site II) (hRSV strain Long escape mutant). As to the kind of experiment: cell-based or functional assay.
Test [4] addresses F protein of hRSV strain A-2 (hRSV strain A-2). As to the kind of experiment: cell-based or functional assay.
In test [5] the target is F protein of hRSV strain B-1 (hRSV strain B-1). As to the kind of experiment: cell-based or functional assay.
Sequence of F protein of hRSV strain B-1 (hRSV strain B-1) (chain, as listed by the source limits assumed): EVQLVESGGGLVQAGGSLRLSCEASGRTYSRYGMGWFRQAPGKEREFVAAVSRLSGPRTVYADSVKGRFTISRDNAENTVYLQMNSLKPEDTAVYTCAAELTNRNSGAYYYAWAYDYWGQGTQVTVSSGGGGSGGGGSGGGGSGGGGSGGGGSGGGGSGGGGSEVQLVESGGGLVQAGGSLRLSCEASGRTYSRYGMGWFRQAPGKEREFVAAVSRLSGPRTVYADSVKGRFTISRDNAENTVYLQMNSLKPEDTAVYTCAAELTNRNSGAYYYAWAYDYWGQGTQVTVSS
Test [6] addresses F protein of hRSV strain Long (hRSV strain Long). As to the kind of experiment: cell-based or functional assay.
For test [7], the target named is hRSV FTM- NN protein (membrane anchorless form of the Long fusion protein, 70 kDa) (hRSV strain Long). As to the kind of experiment: SPR (Biacore T100), FTM- NN amine-coupled, 1:1 Langmuir fit.

Where only a bound is given, the exact number is not on record here.

Sequence of F protein of hRSV strain A-2 (hRSV strain A-2) (chain, as listed by the source limits assumed): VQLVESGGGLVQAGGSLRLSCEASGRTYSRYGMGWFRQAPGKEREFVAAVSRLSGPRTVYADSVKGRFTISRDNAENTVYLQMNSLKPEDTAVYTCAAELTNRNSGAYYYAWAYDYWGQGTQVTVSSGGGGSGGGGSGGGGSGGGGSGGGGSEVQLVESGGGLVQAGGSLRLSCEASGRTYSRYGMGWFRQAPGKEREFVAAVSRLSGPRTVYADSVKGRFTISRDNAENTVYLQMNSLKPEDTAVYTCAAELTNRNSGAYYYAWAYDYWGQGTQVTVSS

With 101F Fab, the IC50 in test [1] is 1.12 nM.
In test [1], Numax Fab (Motavizumab or MEDI-524) returned an IC50 of 0.086 nM.
“Synagis® (Palivizumab, humanized monoclonal antibody)” came in with a neutralization of escape mutant virus, IC50 in test [2] of more than 200 nM. In addition, the neutralization of escape mutant virus, IC50 in test [3] was more than 200 nM. In addition, the RSV neutralization IC50 in test [4] was found to be 2.5 nM. In test [5], the Neutralization IC50 (first assay) stood at 2.1 nM, the Neutralization IC50 (second assay) was 2.9 nM and the RSV neutralization IC50 worked out at 1.7 nM. Besides, in test [6], the Neutralization IC50 (first assay) came to 7.3 nM, the Neutralization IC50 (second assay) is 6 nM and the RSV neutralization IC50 came out at 4 nM. Further, in test [7], the Kd was determined as 0.64 nM, the koff turned out to be 0.00018 s⁻¹ and the kon is 280000 M⁻¹ s⁻¹.

Broadly, the IC50 is the concentration needed to halve the response being measured. Lower therefore signals greater potency. As usually defined, the Kd is the concentration at which binding is half-saturated. For orientation: koff means a measure of how fast the partners let go of each other. As usually defined, the kon is the second-order rate constant of association. A high value points to fast association.

(Values after patent publication US20150118233A1.)
